Assay: soluble on expression in E. coli; label from the status in PepcDB or PDB records
In the case of “MGSDKIHHHHHHMIQGKKFISPGTWFSMIYPSDWSEFEDGEGSFLFYNPEHWTGNFRISAYKEDAAAPGGMNYGKDSVRQELKENPSASLVKVGHLECAYSKEMFEEEGIYYTSHLWVTGIDNVAFECSFTVPKGEHVDEAEKIISSLEIRKDGQKYPAEIIPIRLSEIYQVNEAYEWVTDTVKTQLKKDFQGLEEDLQKIQDVIDSGVLSPKKKEPWLAFGIAICTILANEVEGMEWMTLVDGNREVPVLRYEGSEQLIDPMKLLWSRVRAGETCEVAEAYKQALIH”, the “soluble on expression in E. coli” value is reported as “not soluble”.
In the case of “MGVVLARGAFRERSMLTLPDFPLPDARGRFGPYGGRYVPETLIPALEELEAAYREAKKDPAFLEELDHYLRQFAGRPTPLYHAKRLSEYWGGAQVFLKREDLLHTGAHKINNTLGQALLARRMGKRRVIAETGAGQHGVSVATVAALFGLECVVYMGEEDVRRQALNVFRMKLLGAEVRPVAAGSRTLKDATNEAIRDWITNVRTTFYILGSVVGPHPYPMMVRDFQSVIGEEVKRQSLELFGRLPDALIAAVGGGSNAIGLFAPFAYLPEGRPKLIGVEAAGEGLSTGRHAASIGAGKRGVLHGSYMYLLYDHDGQITPAHSVSAGLDYPGVGPEHSYYADAGVAEYASVTDEEALEGFKLLARLEGIIPALESAHAIAYAAKVVPEMDKDQVVVINLSGRGDKDVTEVMRLLGGEL”, the “soluble on expression in E. coli” value is reported as “soluble”.
In the case of “SSPGKPPRLVGGPMDASVEEEGVRRALDFAVGEYNKASNDMYHSRACQVVRARKQIVAGVNYFLDVELCRTTCTKTQPNLDNCPFHDQPHLKRKAFCSFQIYAVPWQGTMTLSKSTCQDA”, the “soluble on expression in E. coli” value is reported as “soluble”.
With “MGSDKIHHHHHHMVVESGFTAAQLPWLEGPRQAFLAQLTRQKMPHAQLVGIDSAYGGELLSVFMARAAMCLQPTPAGACGFCKSCQLFDAGNHPDFYHIAADGNQIKVDQIRELCTRLTATAQQSGMRVAIIHHSERLNSAAANALLKTLEEPGKDTLLILQSDTPARLMATVGSRCQRIPFVVPSREIIKNWLAQQCDIKEDVTWCLSVVGGPLQLAESLQSEGGQQSRYQSLLQFRKDWAQSLSSGHLCASLLTISEQQIIDVLKVLYLLIRQVLLKNSHQDAFIHAQLGNLAAKIMGMCHSLSTMPSVNYLALCQSYVLEYREITNK” the “soluble on expression in E. coli” value was “not soluble”.
In the case of “MINYPNLPNSALEITEQPEVKEITNELLKQLQNALNSNSLFSEQVELSLKGIVRILEVLLSLDFFKNANEIDSSLRNSIEWLNNAGESLKTKMKEYEGFFSDFNTSMRTNEQEVSATLNANTENIKSEIKKLENQLIETTTRLLTSYQIFLNNARDSANNQITANKTESLEALNQAKTSANNEITANQTQALTNINEAKENANNQITENKTQAITNINEAKNQSLSKH”, the “soluble on expression in E. coli” value is reported as “not soluble”.
For “MGSDKIHHHHHHMLKENRSLDRGIEILETLAREGAMSLADLHRATGLPKSTLRRLLQTLIARKIVRRSLADKLYRTLVVFPDISGEVMPKGMLHISEAAIPRALALTKEIGWPSDIHIRETRAMRIIDNTRHASTFHVERGQINQRVSHFGSATGLACLAEMKDAEIATIYEAFKPDLQWGPVRFGLDLAGLMARIEQVRQVGYAERLSAPMSDPDWDTDLRAIAVAIKARGRVVGGLSVLWLRPYKPVEEFARLHLEALQTAAAEINATLDAVWEDAAT”, the “soluble on expression in E. coli” value was “not soluble”.
For “MPQFLKGVTLENREGDELPAEEHLKGKIIGLYFSASWCPPCRAFTPKLKEFFEEIKKTHPEFEIIFVSRDRNSSDLVTYFKEHQGEWTYIPFGSDKIMSLMQKYEVKTIPAMRIVNDQGEVIVQDARTEIQNKGENVEGLWAEWMALIK”, the “soluble on expression in E. coli” value was “not soluble”.
With “MAHHHHHHMTMRRFGGALTRPLGGMRRVVVGPNGSVPEAGCVPTFETRRRKRLRLGGSLTGDWVASTESLSGSCVREEEARLLCFEKYGFVHKPLTMASWSDFLQELARFEFRWRLLPCVGGVTVLNIVERNCGDENVLCDLRTSCGSAPFAQFFECLGAFVQGTSEKRCIMFCDPNGLEQSLEIRAKRHLSPALGEGFEDEKPILPTLAQYDCRGTLVDLVLKDMKTDVLRPIISDISMQALNYAFLVSIPLFLRQADVGVRNTDLVSKEQMRHFRFAWCFLRRESMMTPVEIGELDTLLPP” the “soluble on expression in E. coli” value was “not soluble”.
In the case of “MTFLIKRETQVDQILRDIRAVVNQMVPKEAKITEIEFEGPELVIYVKNPEAIMKDGELIKDLAKVLKKRISVRPDPEVLLPPEEAEKLIFEIVPKEAEITNIAFDPSVGEVLIEAKKPGLVIGKNGETLRLITQKVKWAPKVVRTPPLQSQTIYSIRQILQTESKDRRKFLRQVGRNIYRKPEYKSRWIRITGLGGFREVGRSALLVQTDESFVLVDFGVNVAMLNDPYKAFPHFDAPEFQYVLREGLLDAIIITHAHLDHCGMLPYLFRYNLFDGPIYTTPPTRDLMVLLQKDFIEIQQSNGQDPLYRPRDIKEVIKHTITLDYGEVRDISPDIRLTLHNAGHILGSAIVHLHIGNGLHNIAITGDFKFIPTRLLEPANAKFPRLETLVMESTYGGANDIQMPREEAEKRLIEVIHNTIKRGGKVLIPAMAVGRAQEVMMVLEEYARIGGIEVPIYLDGMIWEATAIHTAYPEYLSRRLREQIFKEGYNPFLSEIFHPVANSRERQDIIDSNEPAIIIASSGMLVGGPSVEYFKQLAPDPKNSIIFVSYQAEGTLGRQVQSGIREIPMVGEEGRTEVIKVNMEVHTIDGFSGHADRRELMNYVAKVRPRPERIITVHGEPQKCLDLATSIHRKFGISTRAPNNLDTIRLR”, the “soluble on expression in E. coli” value is reported as “soluble”.
With “GPGSMSEYADCTEVAKKALEFRQQFYQLLDNPERRGDIVALYAPNTPLLCEWNGHALPDTASIAAYLGGLPRTNHKVDCVDAQPLPGNERADSFLMTVHGVVTYDDEHKREFFQRFVIRKVEERYYIMNDYYRWLSEKE” the “soluble on expression in E. coli” value was “not soluble”.
With “MPEEIATLAGGCFWCTEAAFKLLRGVLEVVPGYAGGHVPHPTYEEVCTGTTGHREAVQVRFDPGVLPYADLLRYFFAVHDPTSEDRQGPDVGPQYSPAIFYHSEEQKRVAEAVMRELAPLYPKPIATKLLPFTTFYPAEAYHRDYFARHPEAPYCRFVIAPKLEKARKAFKSLLRP” the “soluble on expression in E. coli” value was “soluble”.
With “MGSDKIHHHHHHMENESKLVEVDEKHLQFRVAREAFVSEQILSGEYEKIFDRCWLYVGHVSEFSKPGDFVTRTIARRNLLVTMGTDNRINAFFNTCPHRGATVCRDRAGNSKNFQCFYHGWVFGCDGNLKSQPGKDRYCADFIASGAGNLVSVPRFDIYAGFCFVSFNAEVEPLPDYLAGAKEYLDLVSRYSESGMAISSGTQEYAIRANWKLLVENSVDGYHAVSTHATYLDYLKNTNGSLSSTKLEGTSYDLGNGHAVLEYTAPWGRPIASWVPLWGEQGKKEIDQIYARLVELHGEDMADRMAHKNRNLLIFPNLVVNDIMAITVRTFYPQAPNYMLVNGWSLAPREESEWAKKFRLSNFLEFLGPGGFATPDDVEALESCQNGFSNYRLVPWSDISKGMGKASPNYDDELQMRAFWTRWNQYISGSPSPQATIRRLPSATAA” the “soluble on expression in E. coli” value was “not soluble”.
With “MSDALDDENVLCFRYKSYYIKDDGSRIDTLNEERIKHIVDFTLDKYLDATQNTPKFDNFENPVKEGFNSIFACESKEAAIEYYKEFKKQIEQKKLPIKIASIIAQTKVVMNKKLV” the “soluble on expression in E. coli” value was “soluble”.
In the case of “MGSDKIHHHHHHMLLTPDDLKACEVELARRSLADFARMAWPVLEPATPLKWGWALDAICEHLEAVSRGESKRLLMNVPPGSMKSLLTGVIWPAYEWGPMDHAEMRFLGTAHKQDLAVRDNLKCRRLIQSQWYQERWPVVLTSDQNAKTKFENARTGFREAMAFESMTGSRGDRVILDDPHSVDDANSAAKLASGVTTFREALPSRVNNDQSAIVIVMQRLNEADVSAVAIDLGYDHLCIPMRYEPGRSKWVYGSGDPRKEEGELMFPERFPEEQVSELEKTMGSYAVAGQLQQRPAPRGGGIIKTAWFRSYRELPALEWRQIHADTAQKTGEENDYSVFQCWGRTTTGQAVLIDQIRGKWEAPDLLTQARAFWLKHKSIPGPVLRAMKVEDKVSGTGLIQTLRREGVAVIPVQRNKDKISRAYDAAAFIESGNVLLPEWADWLDGFTNEAATFPSGAHDDQLDPMFDAIHDVQFGMTVSAAVTRPIPRSVTAFNKR”, the “soluble on expression in E. coli” value is reported as “not soluble”.

From the DeepSol protein solubility set
